Measured values as given in patent US20030180895A1.

Key:
Test in all cases: cell-based or functional assay
[1] = molecular target: Bacillus subtilis xylanase A mutant D11Y (Bacillus subtilis) (UniProt P18429)
[2] = molecular target: Bacillus subtilis xylanase A mutant G120D (Bacillus subtilis) (UniProt P18429)
[3] = molecular target: Bacillus subtilis xylanase A mutant N17K (Bacillus subtilis) (UniProt P18429)
[4] = molecular target: Bacillus subtilis xylanase A mutant S31D (Bacillus subtilis) (UniProt P18429)
[5] = molecular target: Bacillus subtilis wild type xylanase A (Bacillus subtilis) (UniProt P18429)
[6] = molecular target: Bacillus subtilis xylanase A mutant Y166F (Bacillus subtilis) (UniProt P18429)

wheat endogenous xylanase inhibitor
Relative inhibition, % at 1, 26 XIU/ml [1]: 120%
Relative inhibition, % at 3, 15 XIU/ml [1]: 114%
Relative inhibition, % at 6, 3 XIU/ml [1]: 126%
Relative inhibition, % at 12, 6 XIU/ml [1]: 124%
Relative inhibition, % at 1, 26 XIU/ml [2]: 84%
Relative inhibition, % at 3, 15 XIU/ml [2]: 47%
Relative inhibition, % at 6, 3 XIU/ml [2]: 24%
Relative inhibition, % at 12, 6 XIU/ml [2]: 18%
Relative inhibition, % at 1, 26 XIU/ml [3]: 88%
Relative inhibition, % at 3, 15 XIU/ml [3]: 48%
Relative inhibition, % at 6, 3 XIU/ml [3]: 31%
Relative inhibition, % at 12, 6 XIU/ml [3]: 26%
Relative inhibition, % at 1, 26 XIU/ml [4]: 79%
Relative inhibition, % at 3, 15 XIU/ml [4]: 52%
Relative inhibition, % at 6, 3 XIU/ml [4]: 30%
Relative inhibition, % at 12, 6 XIU/ml [4]: 24%
Relative inhibition, % at 1, 26 XIU/ml [5]: 75%
Relative inhibition, % at 3, 15 XIU/ml [5]: 40%
Relative inhibition, % at 6, 3 XIU/ml [5]: 24%
Relative inhibition, % at 12, 6 XIU/ml [5]: 20%
Relative inhibition, % at 1, 26 XIU/ml [6]: 74%
Relative inhibition, % at 3, 15 XIU/ml [6]: 39%
Relative inhibition, % at 6, 3 XIU/ml [6]: 22%
Relative inhibition, % at 12, 6 XIU/ml [6]: 20%
